Experimental findings from paper doi:10.1101/2022.04.26.489478 are described below.

This experiment addresses GST-GABARAP (human), O95166. Description: microscopy-based on-bead protein-protein interaction assay. The following applies: remark: other sources report otherwise.

Chain of GST-GABARAP (human), O95166 (O95166 whole entry): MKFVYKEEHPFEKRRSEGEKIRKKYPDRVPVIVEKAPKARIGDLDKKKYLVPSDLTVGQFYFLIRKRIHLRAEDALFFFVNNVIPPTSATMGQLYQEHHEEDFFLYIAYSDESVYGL

B1: mCherry tagged HsC53^sAIM, Q96JB5 1-506 (natural protein)
chain: MEDHQHVPIDIQTSKLLDWLVDRRHCSLKWQSLVLTIREKINAAIQDMPESEEIAQLLSGSYIHYFHCLRILDLLKGTEASTKNIFGRYSSQRMKDWQEIIALYEKDNTYLVELSSLLVRNVNYEIPSLKKQIAKCQQLQQEYSRKEEECQAGAAEMREQFYHSCKQYGITGENVRGELLALVKDLPSQLAEIGAAAQQSLGEAIDVYQASVGFVCESPTEQVLPMLRFVQKRGNSTVYEWRTGTEPSVVERPHLEELPEQVAEDAIDAGDFGVEAVSEGTDSGISAEAAGIDAGIFPESDSKDPGGDGIDAGDDAVALQITVLEAGTQAPEGVARGPDALTLLEYTETRNQFLDELMELEIFLAQRAVELSEEADVLSVSQFQLAPAILQGQTKEKMVTMVSVLEDLIGKLTSLQLQHLFMILASPRYVDRVTEFLQQKLKQSQLLALKKELMVQKQQEALEEQAALEPKLDLLLEKTKELQKLIEADISKRYSGRPVNLMGTSL
B1 displayed a percent recruited less than wild type C53 of 78%.
